Data as given in patent US20140271457A1 (AbbVie / Abbott, published 2014).
Substitutions are numbered along the chain they refer to. One block for each binder: values may come before it.

Target: Recombinant Human TNF-α/TNFSF1A (human, UniProt P01375 77-233)
Assay: cell-based or functional assay

Chain of Recombinant Human TNF-α/TNFSF1A (P01375 77-233 limits assumed): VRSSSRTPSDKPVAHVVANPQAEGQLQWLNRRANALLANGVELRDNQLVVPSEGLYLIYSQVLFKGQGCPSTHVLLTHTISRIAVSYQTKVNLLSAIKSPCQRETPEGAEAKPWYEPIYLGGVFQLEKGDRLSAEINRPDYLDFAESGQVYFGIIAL

C-Terminal VD huTNFα Neutralization Assay IC50: 0.112 nM
B1: DVD3231 (bispecific antibody, IgG1)
VH: EVQLVESGGGLVQPGGSLRLSCAASGFSFSKYWLGWVRQAPGKGLEWVSDIYPGYDYTHYNEKFKDRFTISADTSKNTAYLQMNSLRAEDTAVYYCARSDGSSTYWGQGTLVTVSSASTKGPEVQLVQSGAEVKKPGASVKVSCKASGYTFANYGIIWVRQAPGQGLEWMGWINTYTGKPTYAQKFQGRVTMTTDTSTSTAYMELSSLRSEDTAVYYCARKLFTTMDVTDNAMDYWGQGTTVTVSS
VL: DIQMTQSPSSLSASVGDRVTITCTSSQNIVHSNGNTYLEWYQQKPGKAPKLLIYKVSNRFSGVPSRFSGSGSGTDFTLTISSLQPEDFATYYCFQVSHVPYTFGQGTKVEIKRTVAAPSVFIFPPDIQMTQSPSSLSASVGDRVTITCRASQDISQYLNWYQQKPGKAPKLLIYYTSRLQSGVPSRFSGSGSGTDFTLTISSLQPEDFATYFCQQGNTWPPTFGQGTKLEIKR

N-Terminal VD huTNFα Neutralization Assay IC50: 0.01 nM
B6: DVD3237 (bispecific antibody, IgG1)
VH: EVQLVQSGAEVKKPGASVKVSCKASGYTFNNYGIIWVRQAPGQGLEWMGWINTYTGKPTYAQKFQGRVTMTTDTSTSTAYMELSSLRSEDTAVYYCARKLFNTVAVTDNAMDYWGQGTTVTVSSASTKGPSVFPLAPEVQLVESGGGLVQPGGSLRLSCAASGFSFSKYWLGWVRQAPGKGLEWVSDIYPGYDYTHYNEKFKDRFTISADTSKNTAYLQMNSLRAEDTAVYYCARSDGSSTYWGQGTLVTVSS
VL: DIQMTQSPSSLSASVGDRVTITCRASQDIENYLNWYQQKPGKAPKLLIYYTSRLQSGVPSRFSGSGSGTDFTLTISSLQPEDFATYFCQQGNTQPPTFGQGTKLEIKRTVAAPDIQMTQSPSSLSASVGDRVTITCTSSQNIVHSNGNTYLEWYQQKPGKAPKLLIYKVSNRFSGVPSRFSGSGSGTDFTLTISSLQPEDFATYYCFQVSHVPYTFGQGTKVEIKR

N-Terminal VD huTNFα Neutralization Assay IC50: 0.005 nM
B7: DVD3233 (bispecific antibody, IgG1)
VH: EVQLVQSGAEVKKPGASVKVSCKASGYTFNNYGIIWVRQAPGQGLEWMGWINTYTGKPTYAQKFQGRVTMTTDTSTSTAYMELSSLRSEDTAVYYCARKLFNTVAVTDNAMDYWGQGTTVTVSSGGGGSGGGGSEVQLVESGGGLVQPGGSLRLSCAASGFSFSKYWLGWVRQAPGKGLEWVSDIYPGYDYTHYNEKFKDRFTISADTSKNTAYLQMNSLRAEDTAVYYCARSDGSSTYWGQGTLVTVSS
VL: DIQMTQSPSSLSASVGDRVTITCRASQDIENYLNWYQQKPGKAPKLLIYYTSRLQSGVPSRFSGSGSGTDFTLTISSLQPEDFATYFCQQGNTQPPTFGQGTKLEIKRGGSGGGGSGDIQMTQSPSSLSASVGDRVTITCTSSQNIVHSNGNTYLEWYQQKPGKAPKLLIYKVSNRFSGVPSRFSGSGSGTDFTLTISSLQPEDFATYYCFQVSHVPYTFGQGTKVEIKR

C-Terminal VD huTNFα Neutralization Assay IC50: 0.168 nM
B10: DVD3238 (bispecific antibody, IgG1)
VH: EVQLVESGGGLVQPGGSLRLSCAASGFSFSKYWLGWVRQAPGKGLEWVSDIYPGYDYTHYNEKFKDRFTISADTSKNTAYLQMNSLRAEDTAVYYCARSDGSSTYWGQGTLVTVSSGGGGSGGGGSEVQLVQSGAEVKKPGASVKVSCKASGYTFNNYGIIWVRQAPGQGLEWMGWINTYTGKPTYAQKFQGRVTMTTDTSTSTAYMELSSLRSEDTAVYYCARKLFNTVAVTDNAMDYWGQGTTVTVSS
VL: DIQMTQSPSSLSASVGDRVTITCTSSQNIVHSNGNTYLEWYQQKPGKAPKLLIYKVSNRFSGVPSRFSGSGSGTDFTLTISSLQPEDFATYYCFQVSHVPYTFGQGTKVEIKRGGSGGGGSGDIQMTQSPSSLSASVGDRVTITCRASQDIENYLNWYQQKPGKAPKLLIYYTSRLQSGVPSRFSGSGSGTDFTLTISSLQPEDFATYFCQQGNTQPPTFGQGTKLEIKR

N-Terminal VD huTNFα Neutralization Assay IC50: 0.008 nM
B11: DVD3263 (bispecific antibody, IgG1)
VH: EVQLVESGGGLVQPGGSLRLSCAASGFTFSNYGVTWVRQAPGKGLEWVSMIWADGSTHYASSVKGRFTISRDNSKNTLYLQMNSLRAEDTAVYYCAREWQHGPVAYWGQGTLVTVSSGGGGSGGGGSEVQLQQSGPELVTPGASVKISCKASGYTFTKYWLGWVKQSHGKSLEWIGDIYPGYDYTHYNEKFKDTATLTVDKSSSIAYMEIRGLTSEDSAVYYCARSDGSSTYWGQGTLVTVSA
VL: DIQMTQSPSSLSASVGDRVTITCRASQLVSSAVAWYQQKPGKAPKLLIYWASARHTGVPSRFSGSGSGTDFTLTISSLQPEDFATYYCQQHYKTPFTFGQGTKLEIKRGGSGGGGSGDVQMIQSPSSLSASLGDIVTMTCTSSQNIVHSNGNTYLEWFQQKPGKAPKLLIYKVSNRFSGVPSRFSGSRYGTDFTLTISSLEDEDLATYFCFQVSHVPYTFGGGTKLEIKR

The next lines start with the binder.

B2: DVD3239 (bispecific antibody, IgG1)
VH: B1 VH with A152N, T224N, M226V, D227A
VL: DIQMTQSPSSLSASVGDRVTITCTSSQNIVHSNGNTYLEWYQQKPGKAPKLLIYKVSNRFSGVPSRFSGSGSGTDFTLTISSLQPEDFATYYCFQVSHVPYTFGQGTKVEIKRTVAAPDIQMTQSPSSLSASVGDRVTITCRASQDIENYLNWYQQKPGKAPKLLIYYTSRLQSGVPSRFSGSGSGTDFTLTISSLQPEDFATYFCQQGNTQPPTFGQGTKLEIKR
C-Terminal VD huTNFα Neutralization Assay IC50: 1.62 nM

B3: DVD3241 (bispecific antibody, IgG1)
VH: B1 VH with A152N, T224N, M226V, D227A
VL: B1 VL with S155E, Q156N, W219Q
C-Terminal VD huTNFα Neutralization Assay IC50: 0.112 nM

B4: DVD3234 (bispecific antibody, IgG1)
VH: EVQLVQSGAEVKKPGASVKVSCKASGYTFNNYGIIWVRQAPGQGLEWMGWINTYTGKPTYAQKFQGRVTMTTDTSTSTAYMELSSLRSEDTAVYYCARKLFNTVAVTDNAMDYWGQGTTVTVSSASTKGPEVQLVESGGGLVQPGGSLRLSCAASGFSFSKYWLGWVRQAPGKGLEWVSDIYPGYDYTHYNEKFKDRFTISADTSKNTAYLQMNSLRAEDTAVYYCARSDGSSTYWGQGTLVTVSS
VL: B6 VL
N-Terminal VD huTNFα Neutralization Assay IC50: 0.009 nM

B5: DVD3236 (bispecific antibody, IgG1)
VH: B4 VH
VL: DIQMTQSPSSLSASVGDRVTITCRASQDIENYLNWYQQKPGKAPKLLIYYTSRLQSGVPSRFSGSGSGTDFTLTISSLQPEDFATYFCQQGNTQPPTFGQGTKLEIKRTVAAPSVFIFPPDIQMTQSPSSLSASVGDRVTITCTSSQNIVHSNGNTYLEWYQQKPGKAPKLLIYKVSNRFSGVPSRFSGSGSGTDFTLTISSLQPEDFATYYCFQVSHVPYTFGQGTKVEIKR
N-Terminal VD huTNFα Neutralization Assay IC50: 0.006 nM

B8: DVD3232 (bispecific antibody, IgG1)
VH: EVQLVESGGGLVQPGGSLRLSCAASGFSFSKYWLGWVRQAPGKGLEWVSDIYPGYDYTHYNEKFKDRFTISADTSKNTAYLQMNSLRAEDTAVYYCARSDGSSTYWGQGTLVTVSSASTKGPSVFPLAPEVQLVQSGAEVKKPGASVKVSCKASGYTFANYGIIWVRQAPGQGLEWMGWINTYTGKPTYAQKFQGRVTMTTDTSTSTAYMELSSLRSEDTAVYYCARKLFTTMDVTDNAMDYWGQGTTVTVSS
VL: B2 VL with E148S, N149Q, Q212W
C-Terminal VD huTNFα Neutralization Assay IC50: 0.254 nM

B9: DVD3242 (bispecific antibody, IgG1)
VH: B8 VH with A159N, T231N, M233V, D234A
VL: B2 VL
C-Terminal VD huTNFα Neutralization Assay IC50: 0.13 nM

B12: DVD3264 (bispecific antibody, IgG1)
VH: EVQLVESGGGLVQPGGSLRLSCAASGFTFSNYGVTWVRQAPGKGLEWVSMIWADGSTHYASSVKGRFTISRDNSKNTLYLQMNSLRAEDTAVYYCAREWQHGPVAYWGQGTLVTVSSASTKGPEVQLQQSGPELVTPGASVKISCKASGYTFTKYWLGWVKQSHGKSLEWIGDIYPGYDYTHYNEKFKDTATLTVDKSSSIAYMEIRGLTSEDSAVYYCARSDGSSTYWGQGTLVTVSA
VL: DIQMTQSPSSLSASVGDRVTITCRASQLVSSAVAWYQQKPGKAPKLLIYWASARHTGVPSRFSGSGSGTDFTLTISSLQPEDFATYYCQQHYKTPFTFGQGTKLEIKRTVAAPDVQMIQSPSSLSASLGDIVTMTCTSSQNIVHSNGNTYLEWFQQKPGKAPKLLIYKVSNRFSGVPSRFSGSRYGTDFTLTISSLEDEDLATYFCFQVSHVPYTFGGGTKLEIKR
N-Terminal VD huTNFα Neutralization Assay IC50: 0.006 nM
